Experimental data: IntAct's records for PubMed 26278177

B1: DNA repair protein complementing XP-C cells (Homo sapiens), Q01831-1 (parent)
chain: MARKRAAGGEPRGRELRSQKSKAKSKARREEEEEDAFEDEKPPKKSLLSKVSQGKRKRGCSHPGGSADGPAKKKVAKVTVKSENLKVIKDEALSDGDDLRDFPSDLKKAHHLKRGATMNEDSNEEEEESENDWEEVEELSEPVLGDVRESTAFSRSLLPVKPVEIEIETPEQAKTRERSEKIKLEFETYLRRAMKRFNKGVHEDTHKVHLLCLLANGFYRNNICSQPDLHAIGLSIIPARFTRVLPRDVDTYYLSNLVKWFIGTFTVNAELSASEQDNLQTTLERRFAIYSARDDEELVHIFLLILRALQLLTRLVLSLQPIPLKSATAKGKKPSKERLTADPGGSSETSSQVLENHTKPKTSKGTKQEETFAKGTCRPSAKGKRNKGGRKKRSKPSSSEEDEGPGDKQEKATQRRPHGRERRVASRVSYKEESGSDEAGSGSDFELSSGEASDPSDEDSEPGPPKQRKAPAPQRTKAGSKSASRTHRGSHRKDPSLPAASSSSSSSKRGKKMCSDGEKAEKRSIAGIDQWLEVFCEQEEKWVCVDCVHGVVGQPLTCYKYATKPMTYVVGIDSDGWVRDVTQRYDPVWMTVTRKCRVDAEWWAETLRPYQSPFMDREKKEDLEFQAKHMDQPLPTAIGLYKNHPLYALKRHLLKYEAIYPETAAILGYCRGEAVYSRDCVHTLHSRDTWLKKARVVRLGEVPYKMVKGFSNRARKARLAEPQLREENDLGLFGYWQTEEYQPPVAVDGKVPRNEFGNVYLFLPSMMPIGCVQLNLPNLHRVARKLDIDCVQAITGFDFHGGYSHPVTDGYIVCEEFKDVLLTAWENEQAVIERKEKEKKEKRALGNWKLLAKGLLIRERLKRRYGPKSEAAAPHTDAGGGLSSDEEEGTSSQAEAARILAASWPQNREDEEKQKLKGGPKKTKREKKAAASHLFPFEQL

Variants of: B1
Settings: with tf2h1_human GTF2H1, P32780
tf2h1_human GTF2H1, P32780, sequence (P32780 whole entry): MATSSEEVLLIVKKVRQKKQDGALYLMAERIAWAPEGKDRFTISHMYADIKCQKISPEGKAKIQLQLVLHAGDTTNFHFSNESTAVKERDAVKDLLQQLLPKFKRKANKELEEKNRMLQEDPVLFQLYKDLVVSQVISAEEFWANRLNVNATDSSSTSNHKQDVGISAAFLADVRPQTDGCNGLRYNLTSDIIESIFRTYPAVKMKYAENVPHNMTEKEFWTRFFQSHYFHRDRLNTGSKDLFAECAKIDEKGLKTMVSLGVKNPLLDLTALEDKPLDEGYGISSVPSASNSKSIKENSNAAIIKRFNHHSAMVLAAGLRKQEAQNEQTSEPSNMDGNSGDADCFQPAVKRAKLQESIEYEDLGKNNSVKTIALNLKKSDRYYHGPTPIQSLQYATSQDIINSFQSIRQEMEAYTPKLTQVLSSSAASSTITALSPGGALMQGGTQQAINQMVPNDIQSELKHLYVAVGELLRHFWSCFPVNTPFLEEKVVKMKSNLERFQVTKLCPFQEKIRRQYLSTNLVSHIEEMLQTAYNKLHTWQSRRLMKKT

Variant	effect of a mutation on the interaction
E128A	decreasing interaction strength
W133A	disrupting interaction strength

The remaining lines, values ahead:

effect of a mutation on the interaction	Variant
decreasing interaction strength	V136A
decreasing interaction strength	L139A
decreasing interaction strength	W133F

Variants of: B1
Settings: with ercc3_human ERCC3, P19447
ercc3_human ERCC3, P19447, sequence (P19447 whole entry): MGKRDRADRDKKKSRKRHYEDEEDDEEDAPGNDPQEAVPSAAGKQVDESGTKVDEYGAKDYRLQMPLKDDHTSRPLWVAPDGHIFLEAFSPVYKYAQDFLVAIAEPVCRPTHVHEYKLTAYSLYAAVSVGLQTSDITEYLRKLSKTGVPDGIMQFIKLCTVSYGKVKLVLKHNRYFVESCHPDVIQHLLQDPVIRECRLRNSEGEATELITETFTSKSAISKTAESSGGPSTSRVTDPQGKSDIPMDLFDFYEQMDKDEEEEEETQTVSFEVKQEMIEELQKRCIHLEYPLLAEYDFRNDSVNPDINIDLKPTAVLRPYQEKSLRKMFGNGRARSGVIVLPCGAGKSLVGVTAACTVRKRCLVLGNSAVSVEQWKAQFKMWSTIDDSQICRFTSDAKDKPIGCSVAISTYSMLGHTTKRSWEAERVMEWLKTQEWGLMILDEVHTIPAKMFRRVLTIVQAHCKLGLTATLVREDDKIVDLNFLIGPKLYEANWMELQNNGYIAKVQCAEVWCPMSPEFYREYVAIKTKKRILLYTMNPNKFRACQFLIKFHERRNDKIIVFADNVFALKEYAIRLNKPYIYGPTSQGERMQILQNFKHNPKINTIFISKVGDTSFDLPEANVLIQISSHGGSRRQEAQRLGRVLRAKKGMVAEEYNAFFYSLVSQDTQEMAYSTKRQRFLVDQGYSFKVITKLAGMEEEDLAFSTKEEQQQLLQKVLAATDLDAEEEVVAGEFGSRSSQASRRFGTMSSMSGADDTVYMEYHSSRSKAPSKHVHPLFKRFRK

Variant	effect of a mutation on the interaction
V136A	decreasing interaction strength
W133A	decreasing interaction strength
W133A;V136A	decreasing interaction strength
